What was measured:
[1] = target: T1, hNTD (human myocilin N-terminal domain, residues 33-226) (human, UniProt Q99972 33-226); assay: dot blot, purified construct
T1 construct: also called longer hNTD construct
T1 sequence: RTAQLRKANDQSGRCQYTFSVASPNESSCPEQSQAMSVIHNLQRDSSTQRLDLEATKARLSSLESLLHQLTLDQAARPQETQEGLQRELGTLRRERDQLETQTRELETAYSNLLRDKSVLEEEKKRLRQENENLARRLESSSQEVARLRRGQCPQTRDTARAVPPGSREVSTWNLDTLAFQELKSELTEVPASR
Method: (§1) Dot Blots and Western Blots: Dot and western blots were conducted using protocols previously described in detail (Patterson-Orazem, et al., Exp Eye Res, 173:109-112 (2018)). Briefly, protein samples were immobilized on methanol-activated polyvinylidene difluoride membranes (Millipore®) by electrophoresis for Western blots and by direct deposition of 2 μL sample per dot for dot blots. Membranes were blocked overnight in 2% milk in PBS supplemented with 0.5% TWEEN-20, then probed with primary antibodies. Custom scAbs were tested at 1 μg/mL; IgGs were tested at 0.5 μg/mL to account for bivalency. Protein expression in cell lysates was confirmed using 1:1000 mouse anti-His antibody (RRID: AB_2533947). […] Custom scAbs were detected with 1:2000 (whole cell lysate dot blots) or 1:5000 (all other experiments) dilution of HRP-conjugated goat anti-human κ light chain secondary antibody (RRID: AB_619883). Binding of control antibodies and custom IgGs was detected using 1:2000 (whole cell lysate dot blots) or 1:5000 (all other experiments) dilution of HRP-conjugated goat anti-mouse IgG (H+L) secondary antibody (RRID: AB_2533947).
(§2) Conformational specificity was assessed by comparing results from dot blots (FIGS. 4A-4D) and Western blots (FIG. 4E-4H), experiments were conducted in parallel with specific quantities of purified myocilin constructs. […]

hCCLZ (human myocilin …) = target: T2, hCCLZ (human myocilin coiled-coil/leucine zipper, residues 69-185) (human, UniProt Q99972 69-185); assay: dot blot, purified construct
T2 construct: Made in E. coli (pET-30 XaLIC); Tags were cleaved for immunization and panning; the tagged form was used in cell-lysate dot blots; also called human coiled-coil/leucine zipper
T2 sequence: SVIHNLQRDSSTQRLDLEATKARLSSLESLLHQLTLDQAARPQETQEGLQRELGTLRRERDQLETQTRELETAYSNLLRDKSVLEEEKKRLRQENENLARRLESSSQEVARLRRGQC
Method: as §1, §2

[2] = target: T3, mLZ (mouse myocilin leucine zipper, residues 93-171) (mouse, UniProt O70624 93-171); assay: summary of ELISA and dot blot
T3 construct: Arose when Factor Xa cleaved mCCLZ after TLGR92; also called mouse leucine zipper; mouse LZ
T3 sequence: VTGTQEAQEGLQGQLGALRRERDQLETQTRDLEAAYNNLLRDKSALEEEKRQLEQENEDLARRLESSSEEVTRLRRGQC

[3] = target: T4, full-length endogenous human myocilin from spent medium of human trabecular meshwork (hTM) cells (human, UniProt Q99972 33-504); assay: immunoprecipitation from spent hTM medium
T4 construct: Secreted protein; It was heparin-enriched for dot blots and used directly from spent medium for immunoprecipitation; also called full-length myocilin; hTM-secreted myocilin
T4 sequence: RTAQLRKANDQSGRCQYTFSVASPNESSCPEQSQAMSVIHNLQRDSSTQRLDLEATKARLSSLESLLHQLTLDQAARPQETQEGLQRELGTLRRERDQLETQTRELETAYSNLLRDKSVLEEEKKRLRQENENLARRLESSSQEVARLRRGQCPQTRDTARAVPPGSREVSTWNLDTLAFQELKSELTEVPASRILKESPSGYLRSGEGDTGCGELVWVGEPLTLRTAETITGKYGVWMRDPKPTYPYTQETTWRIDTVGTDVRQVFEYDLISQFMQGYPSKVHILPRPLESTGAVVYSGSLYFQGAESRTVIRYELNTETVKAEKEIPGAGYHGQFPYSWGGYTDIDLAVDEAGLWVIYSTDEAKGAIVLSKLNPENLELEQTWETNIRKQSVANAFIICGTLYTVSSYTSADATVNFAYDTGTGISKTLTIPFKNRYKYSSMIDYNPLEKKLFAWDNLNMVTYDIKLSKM
Method: Immunoprecipitation: Antibodies in IgG format (0.5 ng/ml) were incubated with 10 mL spent hTM medium (experiment) or 10 mL buffer control (50 mM HEPES pH 7.5, 200 mM NaCl, 10% glycerol) overnight at 4° C. on a rocker. Subsequently, Pierce™ Protein A/G Plus agarose suspension (50 μL, ThermoFisher Scientific®) was added, and samples were rocked an additional 2 hours at room temperature. Resin was pelleted by centrifugation (10 minutes at 1,000× g), washed at least 5 times with 500 uL buffer. Bound proteins were eluted by adding 50 μL 2× Laemmli buffer, incubated for 10 minutes at room temperature, followed by pelleting and removing the supernatant. Samples were supplemented to 3% v/v β-mercaptoethanol and heated 10 minutes at 95° C. prior to SDS-PAGE and Western blot analysis.

Measured: binding result

B1: 2A4 IgG (monoclonal antibody 2A4) (antibody, V domains shown)
VH: EVQLQQSGAELMRSGASVKLSCTASGFNIKDYYMHWVKQRPEQGLEWIGWIDPENGDTEYAPKFQGKATMTADTSSNTAYLQLSSLTSEDTAVYYCNPFVYWGQGTLVTVSA
VL: DIVMTQSQKFMSTSVGDRVSVTCKASQNVGTNVAWYQQKPGQSPKALIYSASYRYSGVPDRFTGSGSGTDFTLTISNVQSEDLAEYSCQQYNSYPYTFGGGTKLEIKR
notes: Full length chimeric human IgG1 with kappa light chain (IgG-Abvec and IgK-Abvec vectors), produced in CHO-K1 cells
binds: [1] | hCCLZ (human myocilin …) | [2] | [3]

Source: patent publication US20260009804A1 (GEORGIA TECH RESEARCH, published 2026)
